Experimental data reported in publication PMC8319299, “PALI1 facilitates DNA and nucleosome binding by PRC2 and triggers an allosteric activation of catalysis”.

T1: PALI1 PIR (Homo sapiens, UniProt Q96JN0-3 1058-1250)
T1 sequence: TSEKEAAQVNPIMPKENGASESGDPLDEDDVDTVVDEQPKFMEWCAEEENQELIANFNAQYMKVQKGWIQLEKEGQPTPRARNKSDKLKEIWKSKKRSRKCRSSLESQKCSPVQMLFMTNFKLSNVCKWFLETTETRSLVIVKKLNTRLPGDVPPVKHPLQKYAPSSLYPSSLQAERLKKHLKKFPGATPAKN


Key:
PRC2-PALI1 PIR = PRC2-PALI1 PIR (Homo sapiens, UniProt Q15910-2;O75530;Q15022;Q09028;Q96JN0-3 1-751;1-441;1-739;1-425;1058-1250); assay: fluorescence anisotropy; 50 mM Tris-HCl pH 7.5 (25 C), 100 mM KCl, 2 mM 2-mercaptoethanol, 0.1 mg/mL BSA, 0.05% NP-40; FA at 30 C; nucleosome EMSA with 5% glycerol at 4 C (+5 ng/uL salmon sperm DNA for H2A-Cy5 probes); PALI1 PIR EMSA with 5% glycerol, binding at 30 C; probe 5 nM; conditions: protein: recombinant, tags: His6-MBP (PreScission-cleavable), copies: 1;1;1;1;1, label: 3'-fluorescein; for Kd: hairpin, 46 bp stem
Chain of PRC2-PALI1 PIR (Q15910 other isoform, or with tags, fused parts or gaps, chain 1 of 4): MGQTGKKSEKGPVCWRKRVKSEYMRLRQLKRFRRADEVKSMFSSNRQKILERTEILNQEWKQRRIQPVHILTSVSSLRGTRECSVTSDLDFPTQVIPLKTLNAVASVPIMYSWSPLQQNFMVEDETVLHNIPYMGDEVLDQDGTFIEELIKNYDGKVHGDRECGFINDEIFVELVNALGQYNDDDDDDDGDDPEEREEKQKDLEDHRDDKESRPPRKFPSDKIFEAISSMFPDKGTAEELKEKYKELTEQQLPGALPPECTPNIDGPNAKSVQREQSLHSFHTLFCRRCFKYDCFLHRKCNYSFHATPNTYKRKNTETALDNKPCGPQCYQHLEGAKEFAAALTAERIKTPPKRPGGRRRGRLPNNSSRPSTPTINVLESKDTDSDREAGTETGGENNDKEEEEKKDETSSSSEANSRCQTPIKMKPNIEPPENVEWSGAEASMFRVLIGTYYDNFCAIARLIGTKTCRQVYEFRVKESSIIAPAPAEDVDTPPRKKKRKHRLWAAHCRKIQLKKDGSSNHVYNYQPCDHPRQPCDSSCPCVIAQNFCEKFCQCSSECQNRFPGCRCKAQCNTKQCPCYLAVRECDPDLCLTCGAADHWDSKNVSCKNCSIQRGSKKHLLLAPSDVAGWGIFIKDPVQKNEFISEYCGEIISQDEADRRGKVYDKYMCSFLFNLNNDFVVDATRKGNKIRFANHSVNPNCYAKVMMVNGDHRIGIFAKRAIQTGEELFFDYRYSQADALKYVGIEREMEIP
Chain of PRC2-PALI1 PIR (O75530 whole entry, chain 2 of 4): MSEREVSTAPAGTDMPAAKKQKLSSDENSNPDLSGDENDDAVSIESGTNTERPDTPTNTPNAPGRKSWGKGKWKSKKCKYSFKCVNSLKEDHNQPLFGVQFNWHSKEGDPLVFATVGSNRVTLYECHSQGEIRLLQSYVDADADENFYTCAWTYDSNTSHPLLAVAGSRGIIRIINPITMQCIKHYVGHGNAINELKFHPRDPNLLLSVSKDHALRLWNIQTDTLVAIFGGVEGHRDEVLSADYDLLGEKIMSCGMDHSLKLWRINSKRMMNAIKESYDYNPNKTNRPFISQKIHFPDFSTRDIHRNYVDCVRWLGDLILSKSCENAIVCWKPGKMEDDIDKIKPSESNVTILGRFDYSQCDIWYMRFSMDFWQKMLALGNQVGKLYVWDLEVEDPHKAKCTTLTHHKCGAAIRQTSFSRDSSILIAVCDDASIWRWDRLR
Chain of PRC2-PALI1 PIR (Q15022 whole entry, chain 3 of 4): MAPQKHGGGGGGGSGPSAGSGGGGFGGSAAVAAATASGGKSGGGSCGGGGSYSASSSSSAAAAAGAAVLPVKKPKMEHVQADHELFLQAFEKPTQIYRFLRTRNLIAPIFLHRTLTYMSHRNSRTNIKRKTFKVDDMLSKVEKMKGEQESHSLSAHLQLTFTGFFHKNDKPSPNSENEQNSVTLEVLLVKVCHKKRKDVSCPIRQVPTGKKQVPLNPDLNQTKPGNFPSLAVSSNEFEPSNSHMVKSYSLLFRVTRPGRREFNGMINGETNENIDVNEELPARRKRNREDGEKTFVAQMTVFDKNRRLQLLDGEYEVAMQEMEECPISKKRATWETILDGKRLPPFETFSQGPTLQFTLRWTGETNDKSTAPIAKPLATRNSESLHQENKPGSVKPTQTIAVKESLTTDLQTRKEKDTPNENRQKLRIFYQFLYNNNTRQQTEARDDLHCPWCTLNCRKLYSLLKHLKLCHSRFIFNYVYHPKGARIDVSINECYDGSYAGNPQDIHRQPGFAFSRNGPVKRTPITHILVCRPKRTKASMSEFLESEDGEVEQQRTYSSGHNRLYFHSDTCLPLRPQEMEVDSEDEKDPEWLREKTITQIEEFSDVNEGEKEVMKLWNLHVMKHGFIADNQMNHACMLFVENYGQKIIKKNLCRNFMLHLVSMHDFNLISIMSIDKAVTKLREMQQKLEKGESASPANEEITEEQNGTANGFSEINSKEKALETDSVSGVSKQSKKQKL
Chain of PRC2-PALI1 PIR (Q09028 whole entry, chain 4 of 4): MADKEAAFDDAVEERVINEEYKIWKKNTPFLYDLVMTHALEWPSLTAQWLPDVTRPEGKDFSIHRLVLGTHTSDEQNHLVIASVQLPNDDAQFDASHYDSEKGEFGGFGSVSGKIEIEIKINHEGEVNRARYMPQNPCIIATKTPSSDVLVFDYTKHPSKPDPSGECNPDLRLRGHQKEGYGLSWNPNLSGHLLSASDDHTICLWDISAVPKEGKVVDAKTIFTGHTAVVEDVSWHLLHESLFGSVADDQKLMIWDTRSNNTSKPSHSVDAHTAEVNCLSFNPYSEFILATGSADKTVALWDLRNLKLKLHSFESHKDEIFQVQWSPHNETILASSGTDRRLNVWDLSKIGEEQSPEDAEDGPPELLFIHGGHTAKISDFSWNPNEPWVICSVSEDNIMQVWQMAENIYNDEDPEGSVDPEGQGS

[1] = biological target: PRC2 core (EZH2-EED-SUZ12-RBBP4) (Homo sapiens, UniProt Q15910-2;O75530;Q15022;Q09028 1-751;1-441;1-739;1-425); assay: as above; conditions: protein: recombinant; tags: His6-MBP (PreScission-cleavable); copies: 1;1;1;1; label: 3'-fluorescein; G4
Chain of PRC2 core (EZH2-EED-SUZ12-RBBP4) (Q15910 other isoform, or with tags, fused parts or gaps, chain 1 of 4): as the sequence (Q15910 other isoform, or with tags, fused parts or gaps, chain 1 of 4) above
Chain of PRC2 core (EZH2-EED-SUZ12-RBBP4) (O75530 whole entry, chain 2 of 4): as the sequence (O75530 whole entry, chain 2 of 4) above
Chain of PRC2 core (EZH2-EED-SUZ12-RBBP4) (Q15022 whole entry, chain 3 of 4): as the sequence (Q15022 whole entry, chain 3 of 4) above
Chain of PRC2 core (EZH2-EED-SUZ12-RBBP4) (Q09028 whole entry, chain 4 of 4): as the sequence (Q09028 whole entry, chain 4 of 4) above

PALI1 PIR = biological target: T1, PALI1 PIR; assay: EMSA; 50 mM Tris-HCl pH 7.5 (25 C), 100 mM KCl, 2 mM 2-mercaptoethanol, 0.1 mg/mL BSA, 0.05% NP-40; FA at 30 C; nucleosome EMSA with 5% glycerol at 4 C (+5 ng/uL salmon sperm DNA for H2A-Cy5 probes); PALI1 PIR EMSA with 5% glycerol, binding at 30 C; probe 5 nM; conditions: protein: recombinant; tags: MBP removed by TEV; label: 3'-fluorescein; hairpin, 46 bp stem

Row | Binder | binding result (PRC2-PALI1 PIR; G4) | binding result [1] | Kd (PRC2-PALI1 PIR) [nM] | Kd (PALI1 PIR) [nM]
1 | UUAGGGUUAGGGUUAGGGUUAGGG (structured_RNA) [G4 24 RNA] | binds | binds | – | –
2 | CpG46 mt (structured_DNA) DNA: AATATTTCATTTTATTCTATCTCAATGAGACAAAAGATTGATTAATGCTAATTAATCAATCTTTTGTCTCATTGAGATAGAATAAAATGAAATATT | – | – | 73.7 ± 10 | –
3 | CpG46 (structured_DNA) DNA: GGCGCCCTGCCCCGCCTCGCTCTGGCAGAGTGGGGAGCCAGCCGGCGCTAGCCGGCTGGCTCCCCACTCTGCCAGAGCGAGGCGGGGCAGGGCGCC | – | – | 155 ± 26 | 2300 ± 300
